Values quoted from earlier work in article PMC4569521 (Journal of molecular biology, 2015).

Molecular target: ClpXP (Escherichia coli, UniProt P0A6G7+P0A6H1)
Details: MuA monomers; ref [23]

Sequence of ClpXP (P0A6H1 whole entry): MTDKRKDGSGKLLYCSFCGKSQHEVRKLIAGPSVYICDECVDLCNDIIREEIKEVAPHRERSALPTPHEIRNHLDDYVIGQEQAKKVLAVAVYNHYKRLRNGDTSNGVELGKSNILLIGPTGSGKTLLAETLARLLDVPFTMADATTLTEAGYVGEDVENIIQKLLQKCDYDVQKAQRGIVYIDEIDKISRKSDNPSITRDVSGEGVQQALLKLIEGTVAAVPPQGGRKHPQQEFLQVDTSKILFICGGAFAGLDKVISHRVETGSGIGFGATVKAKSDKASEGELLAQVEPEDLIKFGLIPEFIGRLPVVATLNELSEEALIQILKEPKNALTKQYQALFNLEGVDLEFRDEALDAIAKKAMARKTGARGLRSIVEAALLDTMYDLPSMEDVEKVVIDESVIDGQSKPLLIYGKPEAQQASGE
Sequence of ClpXP (P0A6G7 15-207 partner): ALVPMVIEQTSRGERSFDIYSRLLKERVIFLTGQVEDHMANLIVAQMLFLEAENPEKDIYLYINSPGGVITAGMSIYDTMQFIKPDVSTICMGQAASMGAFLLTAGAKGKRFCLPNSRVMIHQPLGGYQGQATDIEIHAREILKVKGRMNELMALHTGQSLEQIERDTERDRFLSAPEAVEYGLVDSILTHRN

## MuA monomers: Phage Mu transposase, ~75kDa, three domains; monomer in solution
  appKM for degradation by ClpXP: ~ 10 μM
